Data on seven molecules can be found in PMC3214075.

Where a chain is given by its changes, count along the chain named. Names and notes keep the numbering of the source.

The chains are these.
B1: GST-BAD wild type, full length (pEBG-BAD), Q61337 S111A; S112A (protein)
chain: MGTPKQPSLAPAHALGLRKSDPGIRSLGSDAGGRRWRPAAQSMFQIPEFEPSEQEDASATDRGLGPSLTEDQPGPYLAPGLLGSNIHQQGRAATNSHHGGAGAMETRSRHAAYPAGTEEDEGMEEELSPFRGRSRSAPPNLWAAQRYGRELRRMSDEFEGSFKGLPRPKSAGTATQMRQSAGWTRIIQSWWDRNLGKGGSTPSQ
B2: GST-BAD wild type, full length (pEBG-BAD), Q61337 S112A; S136A (protein)
chain: B1 chain with A111S, S136A
B3: GST-BAD wild type, full length (pEBG-BAD), Q61337 S111A; S112A; S136A (protein)
chain: B1 chain with S136A
B4: GST-BAD wild type, full length (pEBG-BAD), Q61337 S112A (protein)
chain: B1 chain with A111S
B5: GST-BAD wild type, full length (pEBG-BAD), Q61337 S111A; S136A (protein)
chain: B1 chain with A112S, S136A
B6: GST-BAD wild type, full length (pEBG-BAD), Q61337 S111A (protein)
chain: B1 chain with A112S
B7: GST-BAD wild type, full length (pEBG-BAD), Q61337 S136A (protein)
chain: B1 chain with A111S, A112S, S136A

The target of the test is T1, 14-3-3, P63104.
T1 chain: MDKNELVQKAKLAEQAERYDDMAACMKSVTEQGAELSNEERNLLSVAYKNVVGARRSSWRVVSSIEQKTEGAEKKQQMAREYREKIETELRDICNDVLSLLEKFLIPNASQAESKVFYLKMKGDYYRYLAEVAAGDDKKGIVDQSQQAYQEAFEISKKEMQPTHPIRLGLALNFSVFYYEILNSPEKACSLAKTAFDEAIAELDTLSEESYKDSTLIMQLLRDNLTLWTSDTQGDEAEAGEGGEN
The test is described as follows: GST pull-down, Western blot densitometry. As to conditions: chain shown with the change; 293T cell extracts, glutathione beads; two blots quantified; parent: est. 1.5; read off a plot. In general terms: In western blotting, separated proteins are transferred to a membrane and probed.
Take B1: the response (IB:14-3-3/total 14-3-3) was determined as 1.9. Then B2, with 0.19; and B3, with 0.22. The result for B4 reads 1.8; that for B5, 0.2. In the case of B6, the response (IB:14-3-3/total 14-3-3) is 1.7. The result for B7 reads 0.17.
